26 sequences from the supplement of paper PMC10724198 can be followed below.

For data set [1], the system named is Saccharomyces cerevisiae. Description: protein stability index of tFT-peptide fusion in deletion strain of DOA10 (PSI (0-1 scale)); higher = more stable (slower turnover). As to the method:
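MPS profiling in S. cerevisiae of two library types built from selected 12-aa C-degron peptides (IN1, IN2, LN1, LN3, VN2, R1-R5, W1-W3, Atg1 and Rpa12 C-termini): saturation mutagenesis libraries and C-terminal +1 capping libraries (13 aa). Each peptide is fused to the C-terminus of a sfGFP-mCherry timer, after a GGGS linker. Cells are FACS-sorted into 8 mCherry/sfGFP bins and sequenced. PSI runs from 0 (unstable) to 1 (stable), measured once in wild type and in the das1Δ or doa10Δ background.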

Data set [2] has as its system Saccharomyces cerevisiae. Description: protein stability index of tFT-peptide fusion in wild type (PSI (0-1 scale)); higher = more stable (slower turnover). The settings on record: genetic background: wild type.
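Throughout, for protein stability index of tFT-peptide fusion in deletion strain of DOA10: PSI per variant is the weighted mean of its sequencing read distribution over the sorted stability bins, counting only variants with over 10 reads summed across bins.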
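Throughout, for protein stability index of tFT-peptide fusion in wild type: PSI derived as read-weighted mean over the 8 sorting bins, only variants exceeding 10 total reads kept, mCherry placed adjacent to the peptide and sfGFP distal.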

As to RVTNLDAIYFRI, the results for the protein stability index in the data set on Saccharomyces cerevisiae [1] and in the data set with Saccharomyces cerevisiae [2] were 0.677 and 0.55, respectively.

In the case of RVTREDAIYFRI, the results for the protein stability index in the data set on Saccharomyces cerevisiae [1] and in the data set with Saccharomyces cerevisiae [2] were 0.699 and 0.625, respectively.

For the sequence RVTRLCAIYFRI, the protein stability index is 0.339 in the data set with Saccharomyces cerevisiae [1] and 0.178 with Saccharomyces cerevisiae [2].

As for RVTRLDAHYFRI, the figures for the protein stability index with Saccharomyces cerevisiae [1] and in the data set on Saccharomyces cerevisiae [2] were 0.71 and 0.684, respectively.

Take RVTRLDAIEFRI: the results for the protein stability index with Saccharomyces cerevisiae [1] and in the data set with Saccharomyces cerevisiae [2] were 0.7 and 0.704, respectively.

On to RVTRLDAIMFRI, for which the protein stability index was 0.686 with Saccharomyces cerevisiae [1] and 0.496 in the data set with Saccharomyces cerevisiae [2].

Consider RVTRLDAIYFAI, for which the protein stability index with Saccharomyces cerevisiae [1] amounted to 0.542; in the data set on Saccharomyces cerevisiae [2] it was 0.481.

RVTRLDAIYFFI: the protein stability index in the data set with Saccharomyces cerevisiae [1] was determined as 0.495; in the data set on Saccharomyces cerevisiae [2], 0.471.

RVTRLDAIYFMI: the figures for the protein stability index in the data set with Saccharomyces cerevisiae [1] and with Saccharomyces cerevisiae [2] were 0.173 and 0.162, respectively.

Regarding RVTRLDAIYFRIL, the protein stability index with Saccharomyces cerevisiae [1] stood at 0.0992; in the data set on Saccharomyces cerevisiae [2] it was 0.0595.

Regarding RVTRLDAIYFRW, the protein stability index with Saccharomyces cerevisiae [1] was found to be 0.709; in the data set on Saccharomyces cerevisiae [2], 0.472.

RVTRLDAIYFRY: the figures for the protein stability index with Saccharomyces cerevisiae [1] and with Saccharomyces cerevisiae [2] were 0.722 and 0.447, respectively.

In the case of RVTRLDAIYFVI, the protein stability index with Saccharomyces cerevisiae [1] came out at 0.233; in the data set on Saccharomyces cerevisiae [2], 0.194.

With RVTRLDAIYHRI, the values for the protein stability index in the data set on Saccharomyces cerevisiae [1] and in the data set with Saccharomyces cerevisiae [2] were 0.723 and 0.662, respectively.

As for RVTRLDAIYIRI, the protein stability index with Saccharomyces cerevisiae [1] is 0.683; in the data set on Saccharomyces cerevisiae [2], 0.325.

With RVTRLDAIYQRI, the protein stability index in the data set on Saccharomyces cerevisiae [1] turned out to be 0.707; with Saccharomyces cerevisiae [2], 0.664.

For the sequence RVTRLDAIYTRI, the protein stability index with Saccharomyces cerevisiae [1] stood at 0.716; with Saccharomyces cerevisiae [2], 0.688.

For RVTRLDAIYYRI, the figures for the protein stability index in the data set on Saccharomyces cerevisiae [1] and in the data set with Saccharomyces cerevisiae [2] were 0.716 and 0.582, respectively.

Take RVTRLDAPYFRI: the protein stability index with Saccharomyces cerevisiae [1] came out at 0.722; in the data set with Saccharomyces cerevisiae [2], 0.676.

On to RVTRLDAQYFRI, for which the protein stability index in the data set on Saccharomyces cerevisiae [1] amounted to 0.683; with Saccharomyces cerevisiae [2], 0.668.

As to RVTSLDAIYFRI, the protein stability index came to 0.669 in the data set on Saccharomyces cerevisiae [1] and 0.55 with Saccharomyces cerevisiae [2].

For the sequence RVYRLDAIYFRI, the protein stability index worked out at 0.587 with Saccharomyces cerevisiae [1] and 0.321 in the data set on Saccharomyces cerevisiae [2].

On to SLYMCSVGCWFR, for which the values for the protein stability index with Saccharomyces cerevisiae [1] and in the data set with Saccharomyces cerevisiae [2] were 0.644 and 0.387, respectively.

TITLPMCPLLLR: the protein stability index came out at 0.633 with Saccharomyces cerevisiae [1] and 0.296 in the data set with Saccharomyces cerevisiae [2].

On to TLYMCSVGCWFR, for which the protein stability index in the data set on Saccharomyces cerevisiae [1] stood at 0.614; in the data set on Saccharomyces cerevisiae [2] it was 0.375.

For the sequence TVTRLDAIYFRI, the protein stability index worked out at 0.707 in the data set on Saccharomyces cerevisiae [1] and 0.364 in the data set with Saccharomyces cerevisiae [2].
